Measurements: PMC7442819, “Taf14 recognizes a common motif in transcriptional machineries and facilitates their clustering by phase separation” (Nature Communications, 2020)
Numbering of substitutions follows the chain as printed. Names and notes keep the numbering of the source. Values joined by “and” are separate entries in the source; they are usually repeats but may differ in a detail not shown here. Identical values can stand only once.

B1: Snf5_(771–800) (peptide, UniProt P18480 771-800, looked up)
peptide: SPPCYIIDHIPGHSLLLSIKLPGKVNTKEE
notes: also called Snf5EBM; source: synthetic peptide (Scilight-Peptide and GenScript) for NMR
B2: Tfg1 motif from 685 to 700 (peptide, UniProt P41895 685-700, looked up)
peptide: EAIGDGKVNIKEFGKF
notes: Tfg1, Saccharomyces cerevisiae, second motif, residues 685-700
B3: Sas3_(111–129) (peptide, UniProt P34218 111-129, looked up)
peptide: SEELKVRIKYDSIKFFNFE
notes: Sas3, Saccharomyces cerevisiae, residues 111-129; source: synthetic peptide (Scilight-Peptide and GenScript) for NMR
B4: Tfg1 motif from 613 to 628 (peptide, UniProt P41895 613-628, looked up)
peptide: IKNCVIILKGDKKILK
notes: Tfg1, Saccharomyces cerevisiae, first motif, residues 613-628
B5: Tfg1 fragment containing both motifs (domain or fragment)
chain: DTLSKSKRSSPKKQQKKATNAHVHKEPTLRVKSIKNCVIILKGDKKILKSFPEGEWNPQTTKAVDSSNNASNTVPSPIKQEEGLNSTVAEREETPAPTITEKDIIEAIGDGKVNIKEFGKFIRRKYPGAENKKLMFAIVKKLCRKVGNDHMELKKE
B6: Taf2_(1393–1406) (peptide, UniProt P23255 1393-1406, looked up)
peptide: RSFMVKIRTKNDAK
notes: Taf2, Saccharomyces cerevisiae, residues 1393-1406; source: synthetic peptide (Scilight-Peptide and GenScript) for NMR
B7: Ino80_(368–390) (peptide, UniProt P53115 368-390, looked up)
peptide: DSKLNIKITLKQYHVKRLKKLIN
notes: Ino80, Saccharomyces cerevisiae, residues 368-390; also called Ino80EBM; source: synthetic peptide (Scilight-Peptide and GenScript) for NMR
B8: Sth1EBM (Sth1_(1183–1240)) (domain or fragment, Saccharomyces cerevisiae, UniProt P32597 1183-1240, looked up)
chain: EVKSSSVEIINGSESKKKKPKLTVKIKLNKTTVLENNDGKRAEEKPESKSPAKKTAAK
notes: source: E. coli Rosetta, purified (Ni-NTA, on-beads digestion, SEC)
B9: Sth1EBM K1209E (domain or fragment, Saccharomyces cerevisiae, UniProt P32597 1183-1240, looked up)
chain: B8 chain with K27E
notes: source: E. coli Rosetta, purified (same protocol as the wild type)
B10: Sth1EBM I1208A (domain or fragment, Saccharomyces cerevisiae, UniProt P32597 1183-1240, looked up)
chain: B8 chain with I26A
notes: also called Sth1^I1208A; source: E. coli Rosetta, purified (same protocol as the wild type)
B11: Sth1EBM K1207E (domain or fragment, Saccharomyces cerevisiae, UniProt P32597 1183-1240, looked up)
chain: B8 chain with K25E
notes: as for B9
B12: Sth1EBM V1206A (domain or fragment, Saccharomyces cerevisiae, UniProt P32597 1183-1240, looked up)
chain: B8 chain with V24A
notes: as for B9
B13: Sth1EBM L1210A (domain or fragment, Saccharomyces cerevisiae, UniProt P32597 1183-1240, looked up)
chain: B8 chain with L28A
notes: as for B9
B14: Sth1EBM L1204A (domain or fragment, Saccharomyces cerevisiae, UniProt P32597 1183-1240, looked up)
chain: B8 chain with L22A
notes: as for B9
B15: Taf14ET (Taf14_(174–244)) (domain or fragment, Saccharomyces cerevisiae, UniProt P35189 174-244, looked up)
chain: KGSVDLEKLAFGLTKLNEDDLVGVVQMVTDNKTPEMNVTNNVEEGEFIIDLYSLPEGLLKSLWDYVKKNTE
notes: Taf14, Saccharomyces cerevisiae, ET domain, residues 174-244; 15N- or 15N/13C-labelled for NMR; also called Taf14 ET domain; 15N-Taf14ET; source: E. coli Rosetta, purified (Ni-NTA, on-beads digestion, SEC)
B16: GST-Taf14_(174–244) (domain or fragment, Saccharomyces cerevisiae, UniProt P35189 174-244, looked up)
chain: B15 chain
notes: Taf14, Saccharomyces cerevisiae, ET domain, residues 174-244; also called GST-Taf14ET; GST-tagged Taf14ET; source: E. coli Rosetta, purified (Ni-NTA, eluted as GST-fused protein, SEC); not shown: 6*His-GST, N-terminal, kept

How the values were obtained:
[1] = target: T1, Taf14ET (Taf14_(174–244)) (Saccharomyces cerevisiae), P35189; experiment: ITC; conditions: modification not given
T1 chain: B15 chain

[2] = target: B15; experiment: ITC; peptide at 1.0 mM in the syringe titrated into Taf14ET at 0.1 mM in the cell; 20 mM phosphate pH 7.0, 100 mM NaCl, 2 mM DTT; 25 °C; one binding site model; conditions: both partners purified
[3] = target: T2, Taf14ET (Taf14_(174–244)) (Saccharomyces cerevisiae, UniProt P35189 174-244); experiment: ITC
T2 chain: B15 chain

GST-Taf14_(174–244) = target: B16; experiment: pull-down; GST-tagged ET domain (25 μg) and binding partner (50 μg) with glutathione–Sepharose 4B beads; 25 mM Tris-HCl pH 8.0, 150 mM NaCl, 2 mM DTT; 4 °C, 3 h; SDS-PAGE; conditions: both partners purified
[4] = target: T2, Taf14ET (Taf14_(174–244)); experiment: ITC
Taf14ET F220A = target: T3, Taf14ET F220A (Saccharomyces cerevisiae); experiment: ITC
T3 chain: B15 chain with F47A

Taf14ET F220R = Taf14ET F220R (Saccharomyces cerevisiae, UniProt P35189 174-244, F220R); experiment: ITC
[5] = target: T2, Taf14ET (Taf14_(174–244)); experiment: ITC
Taf14ET I222R = Taf14ET I222R (Saccharomyces cerevisiae, UniProt P35189 174-244, I222R); experiment: ITC
Sth1EBM K1209E = Sth1EBM K1209E (Saccharomyces cerevisiae, UniProt P32597 1183-1240, K1209E); experiment: ITC
Sth1EBM L1210A = Sth1EBM L1210A (Saccharomyces cerevisiae, UniProt P32597 1183-1240, L1210A); experiment: ITC
Sth1EBM L1204A = Sth1EBM L1204A (Saccharomyces cerevisiae, UniProt P32597 1183-1240, L1204A); experiment: ITC
Sth1EBM V1206A = Sth1EBM V1206A (Saccharomyces cerevisiae, UniProt P32597 1183-1240, V1206A); experiment: ITC
Sth1EBM K1207E = Sth1EBM K1207E (Saccharomyces cerevisiae, UniProt P32597 1183-1240, K1207E); experiment: ITC
Sth1EBM I1208A = Sth1EBM I1208A (Saccharomyces cerevisiae, UniProt P32597 1183-1240, I1208A); experiment: ITC
[6] = target: the molecule itself; experiment: 15N-1H HSQC at several concentrations; apo 15N-Taf14ET at 0.05, 0.1, 0.2 and 0.5 mM
Sth1_(1183–1359) = target: T4, Sth1_(1183–1359) (Saccharomyces cerevisiae, UniProt P32597 1183-1359); experiment: pull-down; GST-tagged ET domain (25 μg) and binding partner (50 μg) with glutathione–Sepharose 4B beads; 25 mM Tris-HCl pH 8.0, 150 mM NaCl, 2 mM DTT; 4 °C, 3 h; SDS-PAGE; conditions: both partners purified
T4 construct: source: E. coli Rosetta, purified
T4 sequence (looked up): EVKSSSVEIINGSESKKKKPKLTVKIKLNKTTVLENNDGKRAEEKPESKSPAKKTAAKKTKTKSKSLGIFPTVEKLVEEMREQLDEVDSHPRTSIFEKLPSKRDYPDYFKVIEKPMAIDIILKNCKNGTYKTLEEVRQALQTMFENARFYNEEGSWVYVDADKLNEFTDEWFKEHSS

Binder DSKLNAKITLKQYHVKRLKKLIN [Ino80EBM I373A] has a Kd [1] of 3.86 µM.

B1 was tested, and the binding result [2] was “binds” and the Kd [3] was 2480 nM.

For B2, the Kd [2] was roughly 9 µM.

In the case of B3, the binding result [2] is reported as “binds” and the Kd [3] is reported as 31300 nM.

KKKPKLTVKIKLNKTTVLENNDGKRAE (domain or fragment, Saccharomyces cerevisiae, UniProt P32597 1199-1225, looked up, source: E. coli Rosetta, purified) [Sth1_(1199–1225)]: binds (GST-Taf14_(174–244)).

B4 was tested, and the Kd [2] was roughly 17 µM.

SPPCYIIDHIPGHSLLASIKLPGKVNTKEE [Snf5EBM L787A] was tested, and the Kd [1] was 41.5 µM.

Binder B5 has a Kd [2] of roughly 0.33 µM.

With B6 the binding result [2] was “binds” and the Kd [3] was 800 nM.

For SPPCYIIDHIPGHSLLLSAKLPGKVNTKEE [Snf5EBM I789A], the Kd [1] was 189 µM.

Binder DSKLNIKITAKQYHVKRLKKLIN [Ino80EBM L377A] has a Kd [1] of 3.87 µM.

In the case of B7, the binding result [2] is reported as “binds” and the Kd [3] is reported as 250 nM.

For B8, the Kd [4] was 372 nM and 194 nM, the Kd (Taf14ET F220A) was 680 nM and the Kd (Taf14ET F220R) was 3.5 µM. The Kd [5] was 50 nM, the Kd (Taf14ET I222R) was 54.6 µM and the Kd [2] was roughly 0.055 µM.

In the case of B9, the “fold increase of KD against wild-type Sth1EBM” value (from here on “fold increase of KD”) [2] is reported as 79 fold.

In the case of B10, the “fold increase of KD” value [2] is reported as 270 fold.

For B11, the “fold increase of KD” value [2] was 154 fold.

B12: binds [2].

B13: binds [2].

B14: binds [2].

For B15, the Kd (Sth1EBM K1209E) was 7.69 µM and 3.94 µM, the Kd (Sth1EBM L1210A) was 1140 nM and the Kd (Sth1EBM L1204A) was 2060 nM. The Kd (Sth1EBM V1206A) was 2040 nM, the Kd (Sth1EBM K1207E) was 3.94 µM and 7.69 µM and the Kd (Sth1EBM I1208A) was 13.4 µM. B15: binds [6].

B16: binds (Sth1_(1183–1359)).
